This is an account of results in article PMC2757719, “EBNA1-Mediated Recruitment of a Histone H2B Deubiquitylating Complex to the Epstein-Barr Virus Latent Origin of DNA Replication” (PLoS Pathogens, 2009).

In series [1] the target is T1, USP7 (ubiquitin specific protease USP7), full length (human, UniProt Q93009 1-1102).
T1 construct: Ubiquitin specific protease USP7 (HAUSP), human, full length; calculated mass printed as 130 Kd (135 kDa in the introduction); Monomeric by glycerol gradient sedimentation; also called HAUSP; Herpesvirus Associated Ubiquitin Specific Protease
T1 sequence (Q93009 whole entry): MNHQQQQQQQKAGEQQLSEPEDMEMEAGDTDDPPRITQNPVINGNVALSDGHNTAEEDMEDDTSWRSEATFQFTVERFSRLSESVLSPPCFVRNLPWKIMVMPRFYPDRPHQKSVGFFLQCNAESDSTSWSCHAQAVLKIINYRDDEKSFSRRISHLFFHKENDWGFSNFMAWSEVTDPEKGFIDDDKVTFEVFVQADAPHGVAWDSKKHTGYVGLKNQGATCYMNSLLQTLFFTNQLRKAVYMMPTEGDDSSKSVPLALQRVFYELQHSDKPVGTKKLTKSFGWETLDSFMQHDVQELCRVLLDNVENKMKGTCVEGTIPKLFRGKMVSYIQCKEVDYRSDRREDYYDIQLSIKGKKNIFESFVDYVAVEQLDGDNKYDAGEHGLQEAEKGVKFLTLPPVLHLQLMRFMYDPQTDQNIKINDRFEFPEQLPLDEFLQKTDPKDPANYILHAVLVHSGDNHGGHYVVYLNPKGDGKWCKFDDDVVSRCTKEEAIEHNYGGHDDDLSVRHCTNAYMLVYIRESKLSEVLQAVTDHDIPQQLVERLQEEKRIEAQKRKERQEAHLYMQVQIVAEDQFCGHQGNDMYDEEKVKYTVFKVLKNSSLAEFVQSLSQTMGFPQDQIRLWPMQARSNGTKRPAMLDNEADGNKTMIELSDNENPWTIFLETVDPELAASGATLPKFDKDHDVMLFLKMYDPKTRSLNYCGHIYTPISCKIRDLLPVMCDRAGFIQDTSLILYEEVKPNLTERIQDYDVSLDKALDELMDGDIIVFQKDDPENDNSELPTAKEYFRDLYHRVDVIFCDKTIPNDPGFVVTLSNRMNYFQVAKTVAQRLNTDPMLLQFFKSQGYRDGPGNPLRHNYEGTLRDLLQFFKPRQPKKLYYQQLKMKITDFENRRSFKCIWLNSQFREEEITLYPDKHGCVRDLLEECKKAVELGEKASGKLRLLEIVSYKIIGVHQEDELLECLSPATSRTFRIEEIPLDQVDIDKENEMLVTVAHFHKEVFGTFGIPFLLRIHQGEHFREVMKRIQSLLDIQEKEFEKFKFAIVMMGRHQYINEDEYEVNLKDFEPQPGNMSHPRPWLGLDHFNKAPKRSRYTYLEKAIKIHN
The experiment in a line: native gel or EMSA; EBNA1 fragment titrated, preincubated with 10 pmols USP7 or USP7-NTD 10 min at RT before 10 fmoles 32P-labelled DS site 1 DNA (or EBNA1-DNA preformed, then rising USP7, Figure 2C); 20 mM Tris pH 7.5, 200 mM NaCl, 1 µg salmon sperm DNA, 20 µl; 10% polyacrylamide gel; read-out: supershift of the EBNA1-DNA complex. The following applies: both partners purified. Background: In EMSA bound probe runs differently from free probe, usually more slowly.

Series [2] deals with the molecule itself. Put plainly: co-sedimentation; glycerol gradient sedimentation: 50 µg USP7 and 25 µg GMPS, alone or mixed 1 h at room temperature, on 10%–20% glycerol gradients in 50 mM HEPES pH 7.9, 200 mM NaCl, 0.5 mM EDTA; SW41 34,000 rpm, 18 h, 4°C; markers aldolase 158 kDa, catalase 232 kDa.
Series [3] has as its target T1, USP7 (ubiquitin specific protease …). The series is described as above. The settings on record: both partners purified.

B1: EBNA1 truncation mutant 395–641 (domain or fragment)
chain: PRRPPPGRRPFFHPVGEADYFEYHQEGGPDGEPDVPPGAIEQGPADDPGEGPSTGPRGQGDGGRRKKGGWFGKHRGQGGSNPKFENIAEGLRALLARSHVERTTDEGTWVAGVFVYGGSKTSLYNLRRGTALAIPQCRLTPLSRLPFGMAPGPGPQPGPLRESIVCYFMVFLQTHIFAEVLKDAIKDLVMTKPAPTCNIRVTVCSFDDGVDLPPWFPPMVEGAAAEGDDGDDGDEGGDGDEGEEGQE
notes: EBNA1 of Epstein-Barr virus, amino acids 395-641, amplified from pc3oriPEBNA1; also called EBNA1_(395–641); EBNA_(395–641); source: E. coli BL21 pLysS (pET15b), purified (Ni-NTA Agarose)
Take B1: the binding result in series [1] is on record as “binds”.

B2: GMP synthetase (GMPS), His-tagged, recombinant (enzyme)
chain: not shown
notes: human GMP synthetase, full-length cDNA (in pOTB7) amplified from the start codon to the stop codon and cloned into pFastBac HT B; mass printed as 77 Kda; also called guanosine 5′ monophosphate synthetase; His-tagged GMPS; source: High Five insect cells infected with baculovirus, purified (nickel resin)
Regarding B2, the “stoichiometry N” value was determined as 2 in series [2] and 1 in series [3].

For orientation: stoichiometry N means the number of molecules, sites or subunits per partner or assembly.
